The results in this text go back to article PMC7069705 (Science Advances, 2019).

First the molecules themselves.
B3: KAP3 (separately purified) (natural protein, mouse, UniProt P70188-1 1-793, looked up)
chain: MQGEDARYLKRKVKGGNIDVHPSEKALIVQYEVEATILGEMGDPMLGERKECQKIIRLKSLNANTDITSLARKVVEECKLIHPSKLSEVEQLLYYLQNRRDSLPGKEKKEKSSKPKDPPPFEGMEIDEVANINDMDEYIELLYEDIPDKVRGSALILQLARNPDNLEELLLNETALGALARVLREDWKQSVELATNIIYIFFCFSSFSHFHGLITHYKIGALCMNIIDHELKRHELWQEELSKKKKAVDEDLENQTLRKDYDKTFKKYQGLVVKQEQLLRVALYLLLNLAEDTRTELKMRNKNIVHMLVKALDRDNFELLILVVSFLKKLSIFMENKNDMVEMDIVEKLVKMIPCEHEDLLNITLRLLLNLSFDTGLRNKMVQVGLLPKLTALLGNENYKQIAMCVLYHISMDDRFKSMFAYTDCIPQLMKMLFECSDERIDLELISFCINLAANKRNVQLICEGNGLKMLMKRALKLKDPLLMKMIRNISQHDGPTKNLFIDYVGDLAAQISSDEEEEFVIECLGTLANLTIPDLDWELVLKEYKLVPFLKDKLKPGAAEDDLVLEVVIMIGTVSMDDSCAALLAKSGIIPALIELLNAQQEDDEFVCQIIYVFYQMVFHQATRDVIIKETQAPAYLIDLMHDKNNEIRKVCDNTLDIIAEYDEEWAKKIQSEKFRWHNSQWLEMVESRQLDESEQYLYGDDRIEPYIHEGDILERPDLFYNSDGLITSEGAISPDFFNDFHLQNGDVVGQHAFPGSLGMDGFGQPLGILGRPATAYGFRPDEPYYYSFGSR

Series [1] deals with the molecule itself. Nature of the series: single-molecule photobleaching step analysis.
The target in series [2] is B3. Nature of the series: SEC-MALS.
The series “SEC-MALS” concerns the molecule itself. Nature of the series: SEC-MALS.
Series [3] addresses full-length APC–green fluorescent protein (GFP) (mouse, UniProt Q61315 1-2845). Description: MST.

full-length APC–green fluorescent protein (GFP), sequence (Q61315 whole entry): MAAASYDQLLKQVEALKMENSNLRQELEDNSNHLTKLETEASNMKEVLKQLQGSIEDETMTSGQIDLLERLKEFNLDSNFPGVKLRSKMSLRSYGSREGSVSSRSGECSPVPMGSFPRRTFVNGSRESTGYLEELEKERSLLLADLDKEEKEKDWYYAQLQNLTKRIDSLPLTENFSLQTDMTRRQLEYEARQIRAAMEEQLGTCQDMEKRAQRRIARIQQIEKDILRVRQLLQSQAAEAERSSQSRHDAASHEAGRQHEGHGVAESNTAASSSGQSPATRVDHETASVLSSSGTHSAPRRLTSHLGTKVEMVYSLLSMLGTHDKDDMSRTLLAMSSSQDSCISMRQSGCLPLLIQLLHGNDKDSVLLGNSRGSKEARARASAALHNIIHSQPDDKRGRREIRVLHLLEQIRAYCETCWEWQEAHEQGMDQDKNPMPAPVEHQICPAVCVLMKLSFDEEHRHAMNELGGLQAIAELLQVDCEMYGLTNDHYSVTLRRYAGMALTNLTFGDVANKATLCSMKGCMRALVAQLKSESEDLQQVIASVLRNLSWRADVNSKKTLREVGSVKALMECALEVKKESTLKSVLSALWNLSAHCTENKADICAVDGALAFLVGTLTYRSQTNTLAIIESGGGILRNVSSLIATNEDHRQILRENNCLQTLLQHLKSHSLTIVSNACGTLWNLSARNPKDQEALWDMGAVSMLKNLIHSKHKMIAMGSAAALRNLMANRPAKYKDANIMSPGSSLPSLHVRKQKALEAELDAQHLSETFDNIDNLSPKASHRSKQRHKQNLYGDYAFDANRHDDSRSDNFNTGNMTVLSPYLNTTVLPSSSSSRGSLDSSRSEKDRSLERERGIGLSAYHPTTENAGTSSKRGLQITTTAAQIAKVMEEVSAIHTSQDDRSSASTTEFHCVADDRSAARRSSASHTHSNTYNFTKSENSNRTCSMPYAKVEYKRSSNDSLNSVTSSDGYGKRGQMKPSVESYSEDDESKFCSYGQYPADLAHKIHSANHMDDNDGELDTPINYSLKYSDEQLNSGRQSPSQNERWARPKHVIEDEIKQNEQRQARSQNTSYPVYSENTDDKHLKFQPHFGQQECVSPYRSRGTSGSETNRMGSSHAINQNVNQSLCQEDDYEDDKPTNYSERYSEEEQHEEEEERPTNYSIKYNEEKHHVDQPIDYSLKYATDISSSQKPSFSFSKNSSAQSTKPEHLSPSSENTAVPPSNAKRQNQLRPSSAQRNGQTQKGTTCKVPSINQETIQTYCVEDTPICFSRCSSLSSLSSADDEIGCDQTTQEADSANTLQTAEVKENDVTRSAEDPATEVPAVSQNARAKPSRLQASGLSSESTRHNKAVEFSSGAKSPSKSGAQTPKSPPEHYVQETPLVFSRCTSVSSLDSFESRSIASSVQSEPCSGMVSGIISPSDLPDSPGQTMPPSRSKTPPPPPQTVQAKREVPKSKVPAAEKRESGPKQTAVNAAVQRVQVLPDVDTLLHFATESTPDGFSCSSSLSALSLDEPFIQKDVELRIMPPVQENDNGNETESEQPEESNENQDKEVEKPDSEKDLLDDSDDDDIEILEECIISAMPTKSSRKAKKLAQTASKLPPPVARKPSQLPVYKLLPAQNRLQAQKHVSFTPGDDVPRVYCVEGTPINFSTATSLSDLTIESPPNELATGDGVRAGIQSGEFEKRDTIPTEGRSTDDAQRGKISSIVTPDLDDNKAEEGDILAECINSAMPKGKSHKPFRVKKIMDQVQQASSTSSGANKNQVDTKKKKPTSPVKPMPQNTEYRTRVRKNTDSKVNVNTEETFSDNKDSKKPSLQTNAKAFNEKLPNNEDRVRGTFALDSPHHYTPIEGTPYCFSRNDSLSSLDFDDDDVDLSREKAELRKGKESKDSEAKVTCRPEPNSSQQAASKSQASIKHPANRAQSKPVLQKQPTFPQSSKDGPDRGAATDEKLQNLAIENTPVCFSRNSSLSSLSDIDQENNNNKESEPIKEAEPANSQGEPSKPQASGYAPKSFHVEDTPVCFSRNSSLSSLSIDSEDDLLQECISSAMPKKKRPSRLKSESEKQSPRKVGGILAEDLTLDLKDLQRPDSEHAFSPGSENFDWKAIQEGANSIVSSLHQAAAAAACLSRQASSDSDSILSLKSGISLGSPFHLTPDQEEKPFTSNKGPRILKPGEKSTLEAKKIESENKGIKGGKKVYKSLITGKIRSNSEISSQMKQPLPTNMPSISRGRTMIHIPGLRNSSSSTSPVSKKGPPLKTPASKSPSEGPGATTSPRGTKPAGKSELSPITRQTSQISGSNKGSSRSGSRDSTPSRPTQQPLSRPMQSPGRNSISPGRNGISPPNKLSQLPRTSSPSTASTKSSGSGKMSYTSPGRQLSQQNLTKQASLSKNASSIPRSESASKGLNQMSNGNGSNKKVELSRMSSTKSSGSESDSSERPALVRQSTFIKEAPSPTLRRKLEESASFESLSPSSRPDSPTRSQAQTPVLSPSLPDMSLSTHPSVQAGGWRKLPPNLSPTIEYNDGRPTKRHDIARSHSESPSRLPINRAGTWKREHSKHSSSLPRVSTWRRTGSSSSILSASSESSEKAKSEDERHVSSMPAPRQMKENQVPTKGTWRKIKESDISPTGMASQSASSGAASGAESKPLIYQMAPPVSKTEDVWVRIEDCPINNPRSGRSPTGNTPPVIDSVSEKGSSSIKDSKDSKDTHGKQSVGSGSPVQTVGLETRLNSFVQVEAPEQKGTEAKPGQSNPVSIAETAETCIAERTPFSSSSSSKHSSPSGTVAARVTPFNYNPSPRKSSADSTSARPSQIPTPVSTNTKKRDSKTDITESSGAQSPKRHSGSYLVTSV

B1: homodimeric SNAP-KIF3A labeled with Alexa647 or TMR (natural protein, mouse, UniProt P28741 1-701, looked up)
chain: MPINKSEKPESCDNVKVVVRCRPLNEREKSMCYRQAVSVDEMRGTITVHKTDSSNEPPKTFTFDTVFGPESKQLDVYNLTARPIIDSVLEGYNGTIFAYGQTGTGKTFTMEGVRAVPGLRGVIPNSFAHIFGHIAKAEGDTRFLVRVSYLEIYNEEVRDLLGKDQTQRLEVKERPDVGVYIKDLSAYVVNNADDMDRIMTLGHKNRSVGATNMNEHSSRSHAIFTITIECSEKGVDGNMHVRMGKLHLVDLAGSERQAKTGATGQRLKEATKINLSLSTLGNVISALVDGKSTHVPYRNSKLTRLLQDSLGGNSKTMMCANIGPADYNYDETISTLRYANRAKNIKNKARINEDPKDALLRQFQKEIEELKKKLEEGEEVSGSDISGSEEDDEEGELGEDGEKKKKRRDQAGKKKVSPDKMVEMQAKIDEERKALETKLDMEEEERNKARAELERREKDLLKAQQEHQSLLEKLSALEKKVIVGGVDLLAKAEEQEKLLEESNMELEERRRRAEQLRKELEEKEQERLDIEEKYTSLQEEAQGKTKKLKKVWTMLMAAKSEMADLQQEHQREIEGLLENIRQLSRELRLQMLIIDNFIPQDYQEMIENYVHWNEDIGEWQLKCVAYTGNNMRKQTPVPDKKERDPFEVDLSHVYLAYTEESLRQSLMKLERPRTSKGKARPKMGRRKRSAKPETVIDSLLQ
modifications: Alexa647 or TMR dye on the SNAP tag
On to B1, for which the “stoichiometry N” value in series [1] was found to be 2.

B2: KIF3A (homodimer, separately purified) (natural protein, mouse, UniProt P28741 1-701, looked up)
chain: MPINKSEKPESCDNVKVVVRCRPLNEREKSMCYRQAVSVDEMRGTITVHKTDSSNEPPKTFTFDTVFGPESKQLDVYNLTARPIIDSVLEGYNGTIFAYGQTGTGKTFTMEGVRAVPGLRGVIPNSFAHIFGHIAKAEGDTRFLVRVSYLEIYNEEVRDLLGKDQTQRLEVKERPDVGVYIKDLSAYVVNNADDMDRIMTLGHKNRSVGATNMNEHSSRSHAIFTITIECSEKGVDGNMHVRMGKLHLVDLAGSERQAKTGATGQRLKEATKINLSLSTLGNVISALVDGKSTHVPYRNSKLTRLLQDSLGGNSKTMMCANIGPADYNYDETISTLRYANRAKNIKNKARINEDPKDALLRQFQKEIEELKKKLEEGEEVSGSDISGSEEDDEEGELGEDGEKKKKRRDQAGKKKVSPDKMVEMQAKIDEERKALETKLDMEEEERNKARAELERREKDLLKAQQEHQSLLEKLSALEKKVIVGGVDLLAKAEEQEKLLEESNMELEERRRRAEQLRKELEEKEQERLDIEEKYTSLQEEAQGKTKKLKKVWTMLMAAKSEMADLQQEHQREIEGLLENIRQLSRELRLQMLIIDNFIPQDYQEMIENYVHWNEDIGEWQLKCVAYTGNNMRKQTPVPDKKERDPFEVDLSHVYLAYTEESLRQSLMKLERPRTSKGKARPKMGRRKRSAKPETVIDSLLQ
Regarding B2, the binding result in series [2] was “binds”. Also, in “SEC-MALS”, the “stoichiometry N” value stood at 2.

As to B3, in series [3], the binding result was “binds”.
